Test results taken from the supplement of paper PMC10567573.

B1: RSPH3 (parent)
chain: QRLEEQERRHREEKERRKKQQWEI
B2: KRT18 (parent)
chain: PQVRDWSHYFKIIEDLRAQIFANT

Variants of: B1
Assay: protein stability index of a GFP-peptide fusion (GPS, HEK-293T) (PSI 1-6); higher = more stable
Details: c terminus: a fixed tail appended
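Note: lentivirally expressed fusions sorted by FACS into six bins by GFP to DsRed ratio, PSI derived from sequencing read proportions per bin multiplied by bin number.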

| Variant | protein stability index |
| --- | --- |
| QRLEEQERRHREEKERRVKQQWEI | 4.18 |
| QRLEEQERRHREEKERRQKQQWEI | 4.83 |
| QRLEEQERRHREEKERRSKQQWEI | 4.49 |
| QRLEEQERRHREEKERRYKQQWEI | 3.59 |
| QRLEEQERRHREEKERRMKQQWEI | 4.6 |
| QRLEEQERRHREEKERRLKQQWEI | 4.27 |
| QRLEEQERRHREEKERRWKQQWEI | 4.03 |
| QRLEEQERRHREEKERRPKQQWEI | 4.72 |
| QRLEEQERRHREEKERREKQQWEI | 4.6 |
| QRLEEQERRHREEKERRTKQQWEI | 4.68 |
| QRLEEQERRHREEKERRAKQQWEI | 4.46 |
| QRLEEQERRHREEKERRDKQQWEI | 4.59 |
| QRLEEQERRHREEKERRGKQQWEI | 4.71 |
| QRLEEQERRHREEKERRCKQQWEI | 4.32 |
| QRLEEQERRHREEKERRHKQQWEI | 4.56 |
| QRLEEQERRHREEKERRNKQQWEI | 4.28 |
| QRLEEQERRHREEKERRIKQQWEI | 4.94 |
| QRLEEQERRHREEKERRRKQQWEI | 3.87 |
| QRLEEQERRHREEKERRFKQQWEI | 4.43 |
| QRLEEQERRHREEKERAKKQQWEI | 4.94 |
| QRLEEQERRHREEKERDKKQQWEI | 4.42 |
| QRLEEQERRHREEKERSKKQQWEI | 4.72 |
| QRLEEQERRHREEKERQKKQQWEI | 4.82 |

| Variant | protein stability index |
| --- | --- |
| QRLEEQERRHREEKERYKKQQWEI | 4.96 |
| QRLEEQERRHREEKERCKKQQWEI | 4.59 |
| QRLEEQERRHREEKERVKKQQWEI | 4.56 |
| QRLEEQERRHREEKERPKKQQWEI | 4.31 |
| QRLEEQERRHREEKERFKKQQWEI | 4.41 |
| QRLEEQERRHREEKERHKKQQWEI | 4.53 |
| QRLEEQERRHREEKERTKKQQWEI | 4.62 |
| QRLEEQERRHREEKERGKKQQWEI | 4.83 |
| QRLEEQERRHREEKEREKKQQWEI | 5.3 |
| QRLEEQERRHREEKERWKKQQWEI | 4.02 |
| QRLEEQERRHREEKERKKKQQWEI | 4.92 |
| QRLEEQERRHREEKERNKKQQWEI | 4.76 |
| QRLEEQERRHREEKERIKKQQWEI | 3.87 |
| QRLEEQERRHREEKERMKKQQWEI | 4.77 |
| QRLEEQERRHREEKERLKKQQWEI | 5.03 |
| QRLEEQERRHREEKEVRKKQQWEI | 5.18 |
| QRLEEQERRHREEKEPRKKQQWEI | 4.97 |
| QRLEEQERRHREEKESRKKQQWEI | 4.9 |
| QRLEEQERRHREEKEQRKKQQWEI | 4.75 |
| QRLEEQERRHREEKEWRKKQQWEI | 4.02 |
| QRLEEQERRHREEKEYRKKQQWEI | 4.74 |
| QRLEEQERRHREEKETRKKQQWEI | 5.11 |
| QRLEEQERRHREEKERRKKQQFEI | 4.97 |

| Variant | protein stability index |
| --- | --- |
| QRLEEQERRHREEKERRKKQQPEI | 4.64 |
| QRLEEQERRHREEKERRKKQQVEI | 5.34 |
| QRLEEQERRHREEKERRKKQQNEI | 5.52 |
| QRLEEQERRHREEKERRKKQQGEI | 5.48 |
| QRLEEQERRHREEKERRKKQQSEI | 5.35 |
| QRLEEQERRHREEKERRKKQQEEI | 5.75 |
| QRLEEQERRHREEKERRKKQQAEI | 5.13 |
| QRLEEQERRHREEKERRKKQQREI | 5.43 |
| QRLEEQERRHREEKERRKKQQCEI | 5.21 |
| QRLEEQERRHREEKERRKKQQIEI | 4.38 |
| QRLEEQERRHREEKERRKKQQKEI | 5 |
| QRLEEQERRHREEKERRKKQQYEI | 4.88 |
| QRLEEQERRHREEKERRKKQQMEI | 4.88 |
| QRLEEQERRHREEKERRKKQQTEI | 5.67 |
| QRLEEQERRHREEKERRKKQQQEI | 5.15 |
| QRLEEQERRHREEKERRKKQQLEI | 5.22 |
| QRLEEQERRHREEKERRKKQQHEI | 4.97 |
| QRLEEQERRHREEKERRKKQQDEI | 5.52 |
| QRLEEQERRHREEKERRKKQQWED | 5 |
| QRLEEQERRHREEKERRKKQQWEN | 4.68 |
| QRLEEQERRHREEKERRKKQQWEC | 4.48 |
| QRLEEQERRHREEKERRKKQQWES | 4.76 |
| QRLEEQERRHREEKERRKKQQWEF | 4.34 |

| Variant | protein stability index |
| --- | --- |
| QRLEEQERRHREEKERRKKQQWEE | 5.04 |
| QRLEEQERRHREEKERRKKQQWEW | 4.51 |
| QRLEEQERRHREEKERRKKQQWEM | 4.56 |
| QRLEEQERRHREEKERRKKQQWEL | 4.78 |
| QRLEEQERRHREEKERRKKQQWEG | 4.83 |
| QRLEEQERRHREEKERRKKQQWEK | 4.25 |
| QRLEEQERRHREEKERRKKQQWER | 5.14 |
| QRLEEQERRHREEKERRKKQQWEH | 4.46 |
| QRLEEQERRHREEKERRKKQQWEV | 5.01 |
| QRLEEQERRHREEKERRKKQQWET | 4.3 |
| QRLEEQERRHREEKERRKKQQWEY | 4.82 |
| QRLEEQERRHREEKERRKKQQWEQ | 4.39 |
| QRLEEQERRHREEKERRKKQQWEP | 5 |
| QRLEEQERRHREEKERRKKQQWEA | 5 |
| QRLEEQERRHREEKERRKKQQWYI | 4.09 |
| QRLEEQERRHREEKERRKKQQWMI | 4.2 |
| QRLEEQERRHREEKERRKKQQWTI | 3.96 |
| QRLEEQERRHREEKERRKKQQWHI | 4.39 |
| QRLEEQERRHREEKERRKKQQWII | 3.6 |
| QRLEEQERRHREEKERRKKQQWLI | 4.21 |
| QRLEEQERRHREEKERRKKQQWPI | 4.26 |
| QRLEEQERRHREEKERRKKQQWWI | 3.67 |
| QRLEEQERRHREEKERRKKQQWRI | 4.69 |

| Variant | protein stability index |
| --- | --- |
| QRLEEQERRHREEKERRKKQQWKI | 4.42 |
| QRLEEQERRHREEKERRKKQQWQI | 3.95 |
| QRLEEQERRHREEKERRKKQQWGI | 4.46 |
| QRLEEQERRHREEKERRKKQQWNI | 4.19 |
| QRLEEQERRHREEKERRKKQQWCI | 4.03 |
| QRLEEQERRHREEKERRKKQQWSI | 3.9 |
| QRLEEQERRHREEKERRKKQQWAI | 3.51 |
| QRLEEQERRHREEKERRKKQQWFI | 3.42 |
| QRLEEQERRHREEKERRKKQQWDI | 4.91 |
| QRLEEQERRHREEKERRKKQQWVI | 3.18 |
| QRLEEQERRHREEKERRKHQQWEI | 4.36 |
| QRLEEQERRHREEKERRKLQQWEI | 4.59 |
| QRLEEQERRHREEKERRKVQQWEI | 4.59 |
| QRLEEQERRHREEKERRKDQQWEI | 4.98 |
| QRLEEQERRHREEKERRKFQQWEI | 4.02 |
| QRLEEQERRHREEKERRKMQQWEI | 4.79 |
| QRLEEQERRHREEKERRKIQQWEI | 4.08 |
| QRLEEQERRHREEKERRKCQQWEI | 4.9 |
| QRLEEQERRHREEKERRKPQQWEI | 4.62 |
| QRLEEQERRHREEKERRKQQQWEI | 4.64 |
| QRLEEQERRHREEKERRKSQQWEI | 4.77 |
| QRLEEQERRHREEKERRKGQQWEI | 4.33 |
| QRLEEQERRHREEKERRKYQQWEI | 4.47 |

| Variant | protein stability index |
| --- | --- |
| QRLEEQERRHREEKERRKTQQWEI | 4.87 |
| QRLEEQERRHREEKERRKNQQWEI | 4.59 |
| QRLEEQERRHREEKERRKWQQWEI | 3.89 |
| QRLEEQERRHREEKERRKRQQWEI | 4.78 |
| QRLEEQERRHREEKERRKEQQWEI | 4.98 |
| QRLEEQERRHREEKERRKKQFWEI | 4.46 |
| QRLEEQERRHREEKERRKKQWWEI | 4.48 |
| QRLEEQERRHREEKERRKKQTWEI | 4.68 |
| QRLEEQERRHREEKERRKKQDWEI | 5.22 |
| QRLEEQERRHREEKERRKKQRWEI | 4.46 |
| QRLEEQERRHREEKERRKKQEWEI | 5.39 |
| QRLEEQERRHREEKERRKKQYWEI | 4.52 |
| QRLEEQERRHREEKERRKKQAWEI | 4.43 |
| QRLEEQERRHREEKERRKKQCWEI | 4.17 |
| QRLEEQERRHREEKERRKKQIWEI | 4.03 |
| QRLEEQERRHREEKERRKKQLWEI | 4.53 |
| QRLEEQERRHREEKERRKKQHWEI | 4.39 |
| QRLEEQERRHREEKERRKKQKWEI | 4.71 |
| QRLEEQERRHREEKERRKKQMWEI | 4.02 |
| QRLEEQERRHREEKERRKKQVWEI | 4.01 |
| QRLEEQERRHREEKERRKKQPWEI | 4.6 |
| QRLEEQERRHREEKERRKKQGWEI | 4.61 |
| QRLEEQERRHREEKERRKKQNWEI | 4.67 |

| Variant | protein stability index |
| --- | --- |
| QRLEEQERRHREEKERRKKQSWEI | 3.71 |
| QRLEEQERRHREEKERRKKWQWEI | 4.36 |
| QRLEEQERRHREEKERRKKMQWEI | 3.86 |
| QRLEEQERRHREEKERRKKHQWEI | 4.16 |
| QRLEEQERRHREEKERRKKRQWEI | 4.12 |
| QRLEEQERRHREEKERRKKSQWEI | 4.8 |
| QRLEEQERRHREEKERRKKEQWEI | 4.8 |
| QRLEEQERRHREEKERRKKFQWEI | 4.19 |
| QRLEEQERRHREEKERRKKVQWEI | 3.64 |
| QRLEEQERRHREEKERRKKYQWEI | 4.19 |
| QRLEEQERRHREEKERRKKAQWEI | 4.34 |
| QRLEEQERRHREEKERRKKCQWEI | 4.77 |
| QRLEEQERRHREEKERRKKKQWEI | 4.22 |
| QRLEEQERRHREEKERRKKNQWEI | 4.56 |
| QRLEEQERRHREEKERRKKLQWEI | 4.35 |
| QRLEEQERRHREEKERRKKIQWEI | 4.6 |
| QRLEEQERRHREEKERRKKPQWEI | 4.68 |
| QRLEEQERRHREEKERRKKGQWEI | 4.65 |
| QRLEEQERRHREEKERRKKDQWEI | 4.94 |

Variants of: B2
Assay: as above
Details: c terminus: a fixed tail appended

| Variant | protein stability index |
| --- | --- |
| NQVRDWSHYFKIIEDLRAQIFANT | 2.5 |
| QQVRDWSHYFKIIEDLRAQIFANT | 2.38 |
| LQVRDWSHYFKIIEDLRAQIFANT | 1.73 |
| WQVRDWSHYFKIIEDLRAQIFANT | 2.86 |
| GQVRDWSHYFKIIEDLRAQIFANT | 1.94 |
| CQVRDWSHYFKIIEDLRAQIFANT | 2.3 |
| YQVRDWSHYFKIIEDLRAQIFANT | 2.22 |
| HQVRDWSHYFKIIEDLRAQIFANT | 1.99 |
| FQVRDWSHYFKIIEDLRAQIFANT | 1.7 |
| IQVRDWSHYFKIIEDLRAQIFANT | 2.24 |
| KQVRDWSHYFKIIEDLRAQIFANT | 2.42 |
| SQVRDWSHYFKIIEDLRAQIFANT | 2.02 |
| VQVRDWSHYFKIIEDLRAQIFANT | 2.2 |
| DQVRDWSHYFKIIEDLRAQIFANT | 2.83 |
| TQVRDWSHYFKIIEDLRAQIFANT | 2.25 |
| EQVRDWSHYFKIIEDLRAQIFANT | 2.13 |

| Variant | protein stability index |
| --- | --- |
| RQVRDWSHYFKIIEDLRAQIFANT | 2.86 |
| AQVRDWSHYFKIIEDLRAQIFANT | 1.31 |
| MQVRDWSHYFKIIEDLRAQIFANT | 2.12 |
| PLVRDWSHYFKIIEDLRAQIFANT | 3.67 |
| PIVRDWSHYFKIIEDLRAQIFANT | 2.92 |
| PFVRDWSHYFKIIEDLRAQIFANT | 2.55 |
| PNVRDWSHYFKIIEDLRAQIFANT | 2.41 |
| PGVRDWSHYFKIIEDLRAQIFANT | 2.29 |
| PMVRDWSHYFKIIEDLRAQIFANT | 3.56 |
| PEVRDWSHYFKIIEDLRAQIFANT | 2.63 |
| PDVRDWSHYFKIIEDLRAQIFANT | 2.04 |
| PAVRDWSHYFKIIEDLRAQIFANT | 2.59 |
| PHVRDWSHYFKIIEDLRAQIFANT | 2.17 |
| PCVRDWSHYFKIIEDLRAQIFANT | 2.67 |
| PKVRDWSHYFKIIEDLRAQIFANT | 2.08 |
